Literature values as cited in PMC2375062.

Molecular target: uPA (Homo sapiens) (UniProt P00749)

For glu-plasminogen (from UniProt P00747), the Kd is listed as 50 nM.
